Test results published in US20020193304.

Target: CD87 (UniProt Q03405)
Sequence of UniProt Q03405 (Q03405 whole entry, looked up): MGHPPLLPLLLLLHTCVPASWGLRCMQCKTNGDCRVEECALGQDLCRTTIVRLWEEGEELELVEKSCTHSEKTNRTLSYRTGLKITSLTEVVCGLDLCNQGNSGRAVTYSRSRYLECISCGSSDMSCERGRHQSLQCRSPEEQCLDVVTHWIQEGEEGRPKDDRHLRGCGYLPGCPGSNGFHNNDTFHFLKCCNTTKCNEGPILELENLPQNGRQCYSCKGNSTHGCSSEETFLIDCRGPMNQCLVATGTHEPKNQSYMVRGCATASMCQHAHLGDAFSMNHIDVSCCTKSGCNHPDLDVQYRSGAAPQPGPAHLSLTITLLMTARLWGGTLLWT

## high molecular weight urokinase-type plasminogen activator (HMW-uPA)
  anti-HIV activity (p17) of gel filtration fractions containing HMW-uPA (Nos. 15-18), co-culture assay: also were found to have anti-HIV activity (p17), thought that was weaker than ATF
